Data: paper doi:10.1101/2020.02.26.964882

Target: COVID-19 virus main protease (M^pro) (COVID-19 virus)
Assay: crystal structure

COVID-19 virus main protease (M^pro) (enzyme)
stoichiometry N: 2
